The results in this text go back to publication PMC12669767.

Experiment [1] deals with T1, NEDD4, endogenous in HEK293T, P46934.
T1 chain: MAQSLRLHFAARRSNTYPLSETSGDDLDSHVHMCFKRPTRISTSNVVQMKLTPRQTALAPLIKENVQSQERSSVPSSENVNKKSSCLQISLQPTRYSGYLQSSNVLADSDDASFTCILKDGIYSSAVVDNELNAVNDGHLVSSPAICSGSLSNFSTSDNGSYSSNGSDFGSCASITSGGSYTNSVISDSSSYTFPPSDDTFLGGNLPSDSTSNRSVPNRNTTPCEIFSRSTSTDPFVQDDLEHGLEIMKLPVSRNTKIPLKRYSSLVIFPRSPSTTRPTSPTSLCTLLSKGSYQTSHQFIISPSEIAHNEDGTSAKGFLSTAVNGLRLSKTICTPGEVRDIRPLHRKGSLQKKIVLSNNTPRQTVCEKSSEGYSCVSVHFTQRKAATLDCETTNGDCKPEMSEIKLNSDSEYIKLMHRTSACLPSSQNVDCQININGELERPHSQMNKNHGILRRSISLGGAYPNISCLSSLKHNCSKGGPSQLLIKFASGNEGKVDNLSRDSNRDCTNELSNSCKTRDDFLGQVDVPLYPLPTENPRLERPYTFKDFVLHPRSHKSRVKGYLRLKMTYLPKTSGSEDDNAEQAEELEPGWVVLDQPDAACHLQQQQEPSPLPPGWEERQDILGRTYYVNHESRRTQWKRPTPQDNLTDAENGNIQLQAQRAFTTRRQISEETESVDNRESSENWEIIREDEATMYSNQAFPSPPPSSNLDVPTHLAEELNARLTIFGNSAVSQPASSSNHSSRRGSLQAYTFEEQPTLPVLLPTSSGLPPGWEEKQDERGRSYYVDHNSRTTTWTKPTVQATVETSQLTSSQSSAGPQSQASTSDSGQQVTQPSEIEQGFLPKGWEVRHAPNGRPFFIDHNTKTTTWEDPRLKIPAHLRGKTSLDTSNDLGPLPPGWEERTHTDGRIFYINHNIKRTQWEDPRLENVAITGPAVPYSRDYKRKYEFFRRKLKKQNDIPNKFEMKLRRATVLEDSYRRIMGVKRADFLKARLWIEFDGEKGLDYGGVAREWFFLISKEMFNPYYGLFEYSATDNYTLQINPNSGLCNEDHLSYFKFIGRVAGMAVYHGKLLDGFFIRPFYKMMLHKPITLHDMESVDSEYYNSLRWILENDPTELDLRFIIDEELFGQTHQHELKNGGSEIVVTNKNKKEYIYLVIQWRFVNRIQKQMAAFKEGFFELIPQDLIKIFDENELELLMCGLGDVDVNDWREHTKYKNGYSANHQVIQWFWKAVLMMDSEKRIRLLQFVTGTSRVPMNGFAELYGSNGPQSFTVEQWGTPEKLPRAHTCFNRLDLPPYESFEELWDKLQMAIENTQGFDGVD
Description: co-immunoprecipitation of ALFA-TXNIP, label-free quantitative interactome (mass spectrometry). Conditions: chain shown with the change, immunoprecipitated from HEK293T cells, n = 3, read off a plot; for response (normalized abundance): abundances normalized to unspecific background binding to empty beads, scatter plot.

The target of experiment [2] is WWP1, endogenous in HEK293T, Q9H0M0. The experiment is described as above. Conditions: chain shown with the change, immunoprecipitated from HEK293T cells, n = 3, read off a plot; for response (normalized abundance): abundances normalized to unspecific background binding to empty beads, scatter plot.

B1: ALFA-tagged TXNIP (thioredoxin interacting protein), expressed in HEK293T, Q9H3M7 PPCY331AACA (protein)
chain: MVMFKKIKSFEVVFNDPEKVYGSGEKVAGRVIVEVCEVTRVKAVRILACGVAKVLWMQGSQQCKQTSEYLRYEDTLLLEDQPTGENEMVIMRPGNKYEYKFGFELPQGPLGTSFKGKYGCVDYWVKAFLDRPSQPTQETKKNFEVVDLVDVNTPDLMAPVSAKKEKKVSCMFIPDGRVSVSARIDRKGFCEGDEISIHADFENTCSRIVVPKAAIVARHTYLANGQTKVLTQKLSSVRGNHIISGTCASWRGKSLRVQKIRPSILGCNILRVEYSLLIYVSVPGSKKVILDLPLVIGSRSGLSSRTSSMASRTSSEMSWVDLNIPDTPEAAACAMDVIPEDHRLESPTTPLLDDMDGSQDSPIFMYAPEFKFMPPPTYTEVDPCILNNNVQ
Regarding B1, the response (normalized abundance) turned out to be 1.2e+08 in experiment [1] (parent: est. 4.5e8) and 8.5e+07 in experiment [2] (parent: est. 3.2e8). Moreover, the figures for the other: log2 PPxY331/WT in experiment [1] and in experiment [2] were -1.7 log2 and -1.5 log2, respectively.

B2: ALFA-tagged TXNIP (thioredoxin interacting protein), expressed in HEK293T, Q9H3M7 PPCY331AACA; PPTY375AATA (protein)
chain: MVMFKKIKSFEVVFNDPEKVYGSGEKVAGRVIVEVCEVTRVKAVRILACGVAKVLWMQGSQQCKQTSEYLRYEDTLLLEDQPTGENEMVIMRPGNKYEYKFGFELPQGPLGTSFKGKYGCVDYWVKAFLDRPSQPTQETKKNFEVVDLVDVNTPDLMAPVSAKKEKKVSCMFIPDGRVSVSARIDRKGFCEGDEISIHADFENTCSRIVVPKAAIVARHTYLANGQTKVLTQKLSSVRGNHIISGTCASWRGKSLRVQKIRPSILGCNILRVEYSLLIYVSVPGSKKVILDLPLVIGSRSGLSSRTSSMASRTSSEMSWVDLNIPDTPEAAACAMDVIPEDHRLESPTTPLLDDMDGSQDSPIFMYAPEFKFMPAATATEVDPCILNNNVQ
B2: the response (normalized abundance) in experiment [1] (parent: est. 5.0e8) was found to be 1e+08; in experiment [2] (parent: est. 3.5e8), 1.6e+06. Moreover, the other: log2 PPxY/WT in experiment [1] (volcano plot) was -2.2 log2; in experiment [2] (volcano plot) it was -3 log2.
